The text below walks through data of patent US20140235820A1, “METHODS AND COMPOSITIONS FOR MODULATING THE Wnt PATHWAY” (Genentech, Inc., priority 2010, published 2014).

One assay relates to LRP6. Description: Competition binding between Dkk1 and other Wnt pathway inhibitors (preloaded Dkk1). Details: species or system human. The settings on record: Dkk1 100 nM preloaded, test ligand 100 nM. How it is done:
FIG. 8. Competition binding between Dkk1 and other Wnt pathway inhibitors. The indicated LRP6 construct was preloaded onto biosensor tips. Dkk1 (100 nM) (or buffer control) and the test ligand (100 nM) were loaded sequentially onto the LRP6 tips. (A) Dkk2 competition with Dkk1. (B) Sclerostin competition with Dkk1. Percent binding in the presence of Dkk1 is shown relative to buffer control.
(§1) Binding kinetics were measured by biolayer interferometry using an Octet Red instrument (ForteBio) as previously described (11). Streptavidin (SA) biosensors were loaded with biotinylated hLRP6 in 50 mMTris, pH 8, 300 mM NaCl, 5% (v/v) glycerol, and 0.05% (w/v) Triton X-100. The loaded biosensors were washed in the same buffer before carrying out association and dissociation measurements for the indicated times. The Kd of each interaction was determined using steady state-analysis through the Octet Red software v6.3. Each reported value represents an average of three or more experiments at different concentrations, with a fitted experimental curve for which the square of the correlation coefficient (R^2) is above 0.96.
To assess whether Dkk1, Dkk2, and sclerostin might bind to the same site on LRP6 E1, Dkk2 or sclerostin binding was measured in the presence of preloaded Dkk1 (100 nM). […]

In another assay the target is T1, LRP6 E4 (Homo sapiens, UniProt O75581).
T1 construct: construct E4-T933-Q1253; made in house; host or cells: Tni insect cells (baculovirus, secreted)
T1 sequence (O75581 933-1253): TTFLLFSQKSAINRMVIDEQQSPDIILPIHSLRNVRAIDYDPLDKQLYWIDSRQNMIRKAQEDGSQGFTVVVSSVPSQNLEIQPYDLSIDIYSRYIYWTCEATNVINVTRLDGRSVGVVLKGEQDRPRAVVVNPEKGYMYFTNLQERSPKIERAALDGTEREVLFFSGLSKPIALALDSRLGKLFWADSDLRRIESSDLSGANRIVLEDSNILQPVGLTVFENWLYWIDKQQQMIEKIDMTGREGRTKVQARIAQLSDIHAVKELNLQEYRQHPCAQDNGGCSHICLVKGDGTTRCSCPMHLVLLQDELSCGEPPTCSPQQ
Description: Biolayer interferometry binding to LRP6 E4. How it is done: as §1
The interaction of the different Dkks and sclerostin with various domains of LRP6 was measured using a biolayer interferometry assay (11). Purified receptors contained individual β-propeller-EGF-like units (E1, E2, or E4), two β-propellers (E1E2 or E3E4), or four β-propellers (E1E4))—as follows:
Human LRP6: construct E1E4-amino acids A20-Q1253 of LPR6; construct E1E2-amino acids A20-E631 of LPR6; construct E3E4 amino acids E631-Q1253 of LPR6; construct E1-amino acids A20-D325 of LPR6; construct E2-amino acids […]-E631 of LPR6; construct E4-T933-Q1253. The individual LRP6 β-propeller E3 could not be expressed.
Background: BLI is a label-free optical method that tracks binding on a fibre tip over time.

Assay [1] has as its target T2, human LRP6 construct E1E2 (amino acids A20-E631) (human, UniProt O75581 20-631, biotinylated for biolayer interferometry).
T2 construct: range 20-631; also called LRP6 E1E2
T2 sequence (looked up): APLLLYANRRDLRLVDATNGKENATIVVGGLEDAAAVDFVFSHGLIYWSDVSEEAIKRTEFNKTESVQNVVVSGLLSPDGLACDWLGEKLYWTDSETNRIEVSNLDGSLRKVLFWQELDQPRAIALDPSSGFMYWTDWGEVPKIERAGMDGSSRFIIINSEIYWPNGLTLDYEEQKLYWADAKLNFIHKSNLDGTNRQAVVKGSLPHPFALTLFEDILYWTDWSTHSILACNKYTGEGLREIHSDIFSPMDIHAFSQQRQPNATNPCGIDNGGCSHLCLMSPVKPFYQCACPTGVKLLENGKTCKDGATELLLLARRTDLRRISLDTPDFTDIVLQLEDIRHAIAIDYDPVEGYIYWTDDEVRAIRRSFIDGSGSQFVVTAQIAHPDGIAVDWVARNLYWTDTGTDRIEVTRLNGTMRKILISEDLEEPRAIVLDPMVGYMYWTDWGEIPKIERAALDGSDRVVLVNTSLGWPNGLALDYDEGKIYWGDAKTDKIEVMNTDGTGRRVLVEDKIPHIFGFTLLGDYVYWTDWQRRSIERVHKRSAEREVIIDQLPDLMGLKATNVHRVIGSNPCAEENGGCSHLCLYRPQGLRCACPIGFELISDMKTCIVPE
Description: BLI affinity. How it is done:
as §1, with “(R²)” for “(R^2)”

On to “sclerostin: Sclerostin protein, Wnt pathway inhibitor, expressed in insect cells (LPNAIGR)”, for which the “binding to LRP6 in the presence of preloaded Dkk1” value with LRP6 is “very strongly inhibited”.

Consider “Dkk1: Dickkopf 1 protein, Wnt pathway inhibitor, expressed in insect cells (NSNAIKN)”, for which the “binding to LRP6 E4 (in words)” value with LRP6 E4 is listed as “undetectable”.

B1: Dkk1 Ile42Glu (ligand, human, UniProt O94907 32-266, looked up)
chain: TLNSVLNSNAEKNLPPPLGGAAGHPGSAVSAAPGILYPGGNKYQTIDNYQPYPCAEDEECGTDEYCASPTRGGDAGVQICLACRKRRKRCMRHAMCCPGNYCKNGICVSSDQNHFRGEIEETITESFGNDHSTLDGYSRRTTLSSKMYHTKGQEGSVCLRSSDCASGLCCARHFWSKICKPVLKEGQVCTKHRRKGSHGLEIFQRCYCGEGLSCRIQKDHHQASNSSRLHTCQRH
notes: also called Dkk1 I42E
B1: in assay [1], the “fold loss in affinity against wild-type Dkk1” value is more than 364 fold.
